Experimental data taken from PMC9482650, “Quantitative fragmentomics allow affinity mapping of interactomes” (Nature Communications, 2022).

Columns and labels:
Assay in all cases: holdup assay
Parameters in all cases: key: below the threshold = too weak to quantify, mostly under pKd 3.1 to 4
Conditions in all cases: plain residues with an end cap or a label only (N-terminal biotin on a linker: ado-ado)
[1] = molecular target: T1, TX1BP3, O14907
T1 sequence (O14907 10-122, limits assumed, looked up): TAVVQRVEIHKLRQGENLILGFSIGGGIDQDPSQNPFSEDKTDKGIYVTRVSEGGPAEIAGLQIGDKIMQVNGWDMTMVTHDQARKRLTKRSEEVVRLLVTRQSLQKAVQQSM

[2] = molecular target: MAGI2_6, Q86UL8
[3] = molecular target: FRMPD4, Q14CM0
[4] = molecular target: LNX1_3, Q8TBB1
[5] = molecular target: PDZRN4_1, Q6ZMN7
[6] = molecular target: T2, RADIL, Q96JH8
T2 sequence (Q96JH8 971-1071, limits assumed, looked up): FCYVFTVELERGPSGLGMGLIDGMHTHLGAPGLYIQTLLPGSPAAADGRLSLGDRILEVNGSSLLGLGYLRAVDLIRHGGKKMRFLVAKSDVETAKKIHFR

[7] = molecular target: T3, APBA3_1, O96018
T3 sequence (O96018 389-490, limits assumed, looked up): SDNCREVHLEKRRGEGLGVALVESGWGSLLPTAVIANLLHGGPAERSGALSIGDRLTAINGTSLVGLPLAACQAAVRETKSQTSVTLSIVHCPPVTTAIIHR

[8] = molecular target: IL16_4, Q14005
[9] = molecular target: MAGI2_5, Q86UL8
[10] = molecular target: MAGI1_2, Q96QZ7
[11] = molecular target: DLG4_3, P78352
[12] = molecular target: MAGI1_1, Q96QZ7
[13] = molecular target: PICK1, Q9NRD5
[14] = molecular target: LNX1_2, Q8TBB1
[15] = molecular target: T4, PDZRN3_1, Q9UPQ7
T4 sequence (Q9UPQ7 244-349, limits assumed, looked up): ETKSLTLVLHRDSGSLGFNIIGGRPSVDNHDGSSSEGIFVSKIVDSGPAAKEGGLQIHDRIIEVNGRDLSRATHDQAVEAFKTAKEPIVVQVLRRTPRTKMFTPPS

[16] = molecular target: GORASP1, Q9BQQ3
[17] = molecular target: T5, SNTB1, Q13884
T5 sequence (Q13884 107-205, limits assumed, looked up): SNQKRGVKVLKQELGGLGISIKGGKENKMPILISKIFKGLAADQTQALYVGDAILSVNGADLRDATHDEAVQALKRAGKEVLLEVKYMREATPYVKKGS

[18] = molecular target: LNX1_1, Q8TBB1
[19] = molecular target: Inadl_1, Q8NI35
[20] = molecular target: SCRIB_3, Q14160
[21] = molecular target: GIPC2, Q8TF65
[22] = molecular target: T6, GRIP1_3, Q9Y3R0
T6 sequence (Q9Y3R0 247-346, limits assumed, looked up): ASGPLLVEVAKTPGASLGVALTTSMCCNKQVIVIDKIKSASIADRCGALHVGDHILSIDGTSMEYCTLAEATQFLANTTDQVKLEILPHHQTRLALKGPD

[23] = molecular target: GRIP2_7, Q9C0E4
[24] = molecular target: T7, DFNB31_1, Q9P202
T7 sequence (Q9P202 135-233, limits assumed, looked up): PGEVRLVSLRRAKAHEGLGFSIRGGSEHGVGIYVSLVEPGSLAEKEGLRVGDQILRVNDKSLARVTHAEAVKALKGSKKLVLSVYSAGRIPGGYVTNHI

[25] = molecular target: GRIP2_4, Q9C0E4
[26] = molecular target: Inadl_6, Q8NI35
[27] = molecular target: SNX27, Q96L92
[28] = molecular target: DLG5_1, Q8TDM6
[29] = molecular target: T8, GRIP1_5, Q9Y3R0
T8 sequence (Q9Y3R0 568-668, limits assumed, looked up): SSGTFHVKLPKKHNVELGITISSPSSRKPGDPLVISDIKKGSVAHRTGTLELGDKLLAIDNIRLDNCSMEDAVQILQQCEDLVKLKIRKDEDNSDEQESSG

MAGI2_6, Q86UL8, sequence (Q86UL8 1141-1229): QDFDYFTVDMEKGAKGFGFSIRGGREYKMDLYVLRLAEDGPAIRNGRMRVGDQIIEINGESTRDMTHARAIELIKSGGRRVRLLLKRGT
SCRIB_3, Q14160, sequence (Q14160 999-1103): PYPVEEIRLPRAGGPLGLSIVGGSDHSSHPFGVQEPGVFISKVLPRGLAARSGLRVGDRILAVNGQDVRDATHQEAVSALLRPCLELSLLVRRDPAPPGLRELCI
GRIP2_4, Q9C0E4, sequence (Q9C0E4 446-548): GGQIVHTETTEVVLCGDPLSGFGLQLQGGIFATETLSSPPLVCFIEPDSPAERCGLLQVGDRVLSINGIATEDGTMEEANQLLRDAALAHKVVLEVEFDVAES
Inadl_1, Q8NI35, sequence (Q8NI35 113-229): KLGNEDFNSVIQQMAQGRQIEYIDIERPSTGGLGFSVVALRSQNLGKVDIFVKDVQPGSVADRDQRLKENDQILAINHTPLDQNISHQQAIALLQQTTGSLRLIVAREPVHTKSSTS
PDZRN4_1, Q6ZMN7, sequence (Q6ZMN7 213-318): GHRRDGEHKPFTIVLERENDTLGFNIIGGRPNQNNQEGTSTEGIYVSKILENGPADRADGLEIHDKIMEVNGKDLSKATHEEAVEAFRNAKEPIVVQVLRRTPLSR
DLG5_1, Q8TDM6, sequence (Q8TDM6 617-713): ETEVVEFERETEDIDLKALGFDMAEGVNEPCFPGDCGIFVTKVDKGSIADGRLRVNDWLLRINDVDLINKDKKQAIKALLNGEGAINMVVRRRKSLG
GRIP2_7, Q9C0E4, sequence (Q9C0E4 934-1023): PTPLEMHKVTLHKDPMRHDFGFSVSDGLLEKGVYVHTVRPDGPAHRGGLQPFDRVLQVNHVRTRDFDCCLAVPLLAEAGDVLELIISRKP
MAGI1_2, Q96QZ7, sequence (Q96QZ7 456-580): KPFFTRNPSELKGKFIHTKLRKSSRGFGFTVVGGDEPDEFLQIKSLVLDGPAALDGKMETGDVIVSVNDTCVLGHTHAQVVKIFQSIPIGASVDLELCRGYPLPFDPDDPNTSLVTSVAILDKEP
PICK1, Q9NRD5, sequence (Q9NRD5 17-115): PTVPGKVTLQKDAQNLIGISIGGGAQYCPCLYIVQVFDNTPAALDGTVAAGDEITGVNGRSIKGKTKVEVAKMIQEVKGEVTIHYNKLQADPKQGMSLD
FRMPD4, Q14CM0, sequence (Q14CM0 67-160): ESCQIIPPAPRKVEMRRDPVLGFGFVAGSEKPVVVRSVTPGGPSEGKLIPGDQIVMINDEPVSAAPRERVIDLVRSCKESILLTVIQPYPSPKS
GORASP1, Q9BQQ3, sequence (Q9BQQ3 1-208): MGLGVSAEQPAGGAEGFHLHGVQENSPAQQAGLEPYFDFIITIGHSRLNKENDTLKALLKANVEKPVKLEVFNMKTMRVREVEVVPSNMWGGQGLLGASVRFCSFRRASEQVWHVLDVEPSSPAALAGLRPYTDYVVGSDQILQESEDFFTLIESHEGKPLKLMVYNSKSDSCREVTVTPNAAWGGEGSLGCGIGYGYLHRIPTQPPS
LNX1_3, Q8TBB1, sequence (Q8TBB1 500-596): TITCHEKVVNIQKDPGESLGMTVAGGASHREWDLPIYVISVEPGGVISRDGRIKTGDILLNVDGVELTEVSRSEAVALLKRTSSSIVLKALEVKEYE
Inadl_6, Q8NI35, sequence (Q8NI35 1058-1167): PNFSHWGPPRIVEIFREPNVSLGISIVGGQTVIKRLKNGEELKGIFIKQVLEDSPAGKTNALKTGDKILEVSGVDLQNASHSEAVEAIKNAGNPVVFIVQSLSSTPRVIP
MAGI1_1, Q96QZ7, sequence (Q96QZ7 1-106): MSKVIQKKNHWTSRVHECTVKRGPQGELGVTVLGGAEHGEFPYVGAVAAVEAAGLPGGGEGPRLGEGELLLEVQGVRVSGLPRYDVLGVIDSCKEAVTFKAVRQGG
IL16_4, Q14005, sequence (Q14005 1229-1329): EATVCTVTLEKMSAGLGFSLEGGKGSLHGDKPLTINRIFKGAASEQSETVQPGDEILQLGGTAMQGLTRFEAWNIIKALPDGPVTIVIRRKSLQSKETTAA
DLG4_3, P78352, sequence (P78352 306-403): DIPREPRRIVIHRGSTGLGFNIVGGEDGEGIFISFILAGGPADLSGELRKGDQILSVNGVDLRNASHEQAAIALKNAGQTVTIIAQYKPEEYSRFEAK
GIPC2, Q8TF65, sequence (Q8TF65 112-203): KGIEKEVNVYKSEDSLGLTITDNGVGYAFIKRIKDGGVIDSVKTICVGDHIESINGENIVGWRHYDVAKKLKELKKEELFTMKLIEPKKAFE
LNX1_2, Q8TBB1, sequence (Q8TBB1 371-470): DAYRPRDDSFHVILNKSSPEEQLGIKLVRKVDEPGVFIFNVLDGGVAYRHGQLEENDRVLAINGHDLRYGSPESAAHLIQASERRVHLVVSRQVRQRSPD
LNX1_1, Q8TBB1, sequence (Q8TBB1 261-371): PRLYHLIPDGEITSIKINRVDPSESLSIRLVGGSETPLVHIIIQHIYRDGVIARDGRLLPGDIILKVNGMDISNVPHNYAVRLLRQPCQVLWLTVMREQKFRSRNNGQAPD
MAGI2_5, Q86UL8, sequence (Q86UL8 915-1017): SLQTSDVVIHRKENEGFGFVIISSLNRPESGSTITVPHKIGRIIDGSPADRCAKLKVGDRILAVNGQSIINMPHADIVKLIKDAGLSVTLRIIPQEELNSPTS

RDYTQSSSSL [GRM5, P41594]
pKd [1]: 3.53
pKd [2]: 3.49
pKd [3]: 3.65
pKd [4]: below the threshold
pKd [5]: below the threshold
pKd [6]: below the threshold
pKd [7]: below the threshold
pKd [8]: below the threshold
pKd [9]: below the threshold
pKd [10]: below the threshold
pKd [11]: below the threshold
pKd [12]: below the threshold
pKd [13]: 4.11
pKd [14]: below the threshold
pKd [15]: 3.56
pKd [16]: below the threshold
pKd [17]: below the threshold
pKd [18]: below the threshold
pKd [19]: below the threshold
pKd [20]: 4.05
pKd [21]: below the threshold
pKd [22]: below the threshold
pKd [23]: below the threshold
pKd [24]: below the threshold
pKd [25]: below the threshold
pKd [26]: below the threshold
pKd [27]: 4.25
pKd [28]: below the threshold
pKd [29]: below the threshold

KEKASTETEC [TRPM1, Q7Z4N2]
pKd [1]: below the threshold
pKd [2]: below the threshold
pKd [3]: below the threshold
pKd [4]: below the threshold
pKd [5]: below the threshold
pKd [6]: below the threshold
pKd [7]: below the threshold
pKd [8]: below the threshold
pKd [9]: below the threshold
pKd [10]: below the threshold
pKd [11]: 3.65
pKd [12]: below the threshold
pKd [13]: below the threshold
pKd [14]: below the threshold
pKd [15]: below the threshold
pKd [16]: below the threshold
pKd [17]: 4.17
pKd [18]: below the threshold
pKd [19]: below the threshold
pKd [20]: 4.23
pKd [21]: 4.1
pKd [22]: below the threshold
pKd [23]: below the threshold
pKd [24]: below the threshold
pKd [25]: below the threshold
pKd [26]: below the threshold
pKd [27]: 4.53
pKd [28]: below the threshold
pKd [29]: below the threshold

QKASRNESTF [POLR1D, P0DPB6]
pKd [1]: below the threshold
pKd [2]: below the threshold
pKd [3]: below the threshold
pKd [4]: below the threshold
pKd [5]: below the threshold
pKd [6]: below the threshold
pKd [7]: below the threshold
pKd [8]: below the threshold
pKd [9]: below the threshold
pKd [10]: below the threshold
pKd [11]: below the threshold
pKd [12]: below the threshold
pKd [13]: 4.01
pKd [14]: below the threshold
pKd [15]: below the threshold
pKd [16]: below the threshold
pKd [17]: below the threshold
pKd [18]: 3.52
pKd [19]: below the threshold
pKd [20]: 4.12
pKd [21]: below the threshold
pKd [22]: below the threshold
pKd [23]: below the threshold
pKd [24]: below the threshold
pKd [25]: below the threshold
pKd [26]: below the threshold
pKd [27]: 4.29
pKd [28]: below the threshold
pKd [29]: below the threshold
